The source of these data is ChEMBL document CHEMBL2074331, “Kinetics of P-glycoprotein-mediated efflux of paclitaxel” (J Pharmacol Exp Ther, 2001).

The series has as its system CC(=O)O[C@H]1C(=O)[C@@]2(C)[C@H]([C@H](OC(=O)c3ccccc3)[C@]3(O)C[C@H](OC(=O)[C@H](O)[C@@H](NC(=O)c4ccccc4)c4ccccc4)C(C)=C1C3(C)C)[C@]1(OC(C)=O)CO[C@@H]1C[C@@H]2O. Briefly: TP_TRANSPORTER: uptake in MDR1-expressing MCF7 cells. Type of series: functional, cell-based.

As usually defined, the Km is the substrate concentration at which the rate is half of its maximum. Take “ATP-dependent translocase ABCB1 (Homo sapiens)”: the Km was 0.014 µM.
